Patent US20210403565A1 (BIOATLA, published 2021)

T1: human CTLA4 expressed on the cell surface of CHO cells (human, UniProt P16410 36-223)
T1 construct: whole, on cells; also called CHO-huCTLA4; huCTLA4
T1 sequence (looked up): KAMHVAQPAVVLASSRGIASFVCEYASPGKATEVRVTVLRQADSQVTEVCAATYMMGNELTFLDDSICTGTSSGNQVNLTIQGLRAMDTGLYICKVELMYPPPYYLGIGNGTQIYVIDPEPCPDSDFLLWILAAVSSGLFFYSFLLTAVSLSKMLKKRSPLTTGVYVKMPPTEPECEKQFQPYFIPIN

T2: recombinant human CTLA4 extracellular domain (human, UniProt P16410 36-161)
T2 construct: extracellular domain; also called huCTLA-4
T2 sequence (looked up): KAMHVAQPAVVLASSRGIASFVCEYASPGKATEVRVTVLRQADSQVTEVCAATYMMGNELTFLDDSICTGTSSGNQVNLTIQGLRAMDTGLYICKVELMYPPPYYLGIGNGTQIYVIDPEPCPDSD

B1: BA-087-05-19 (antibody, V domains shown)
VH: EVQLVESGGGLVQPGGSLRLSCAASGFTFSHYTMHWVRQAPGKGLEWVSFISYDGNNKYYADSVKGRFTISRDNSKNTLYLQMNSLRAEDTAVYYCARTGWLGPFDYWGQGTLVTVSS
VL: AIQLTQSPSSLSASVGDRVTITCRASQYVGSSYLAWYLQKPGQSPQLLIYGAFSRATGIPARFSGSGSGTEFTLTISSLQSEDFAVYYCQQDGSSPWTFGQGTKVEIK
notes: Detected with anti-human IgG and a molecular weight of 146 kDa was used in SPR, so it was tested as a whole IgG; also called BA-087-05-019; BA-087-05-19 (# 6972)
B2: BA-087-08-32 (antibody, V domains shown)
VH: EVQLVQSGAEVKKPGATVKISCKVSGFTFSHYTMHWIRQSPSRGLEWLGFISYDGNYKYYADSVKGRFTISRDNAKNSLYLQMNSLRAEDTAVYYCARTGWLGPFDYWGQGTLVTVSS
VL: EIVMTQSPATLSVSPGERATLSCRASQSVGSSYLAWYQQKPGKAPKLLIYGAFSRATGVPSRFSGSGSGTDFTLTISSLQPEDFATYYCQQDGSSPWTFGQGTKVEIK
notes: Detected with anti-human IgG and a molecular weight of 146 kDa was used in SPR, so it was tested as a whole IgG; also called BA-087-08-032; BA-087-08-32 (# 6978)

Assays:
[1] = target: T1, human CTLA4 expressed on the cell …; assay: FACS, cells expressing human CTLA4, assay pH 6.0, MFI; lot 6972 in Tris buffer, T2W; unit from the axis Log[ng/mL]
Method: (§1) The amount of bound antibodies was quantified using anti-human IgG antibody conjugated to fluorophores. The MFI in each reaction was proportional to the amount of antibodies bound. The EC₅₀ value (in ng/mL) for binding to human CTLA4 on cells was determined by MFI of the singlets population against antibody concentration with a Prism variable slope of four-parameter dose-response curve, which was calculated using the nonlinear fit (variable slope, four parameters) model built into GraphPad Prism software (version 7.03).

[2] = target: T2, recombinant human CTLA4 extracellular …; assay: ELISA, wells coated with human CTLA4, assay pH 7.4; lot 6972 in Glu buffer, T2W; unit from the axis Log[ng/mL]
Method: (§2) Both ELISA and FACS analysis were used to measure the binding activity. […] The amount of bound antibodies was quantified using anti-human IgG antibody conjugated to HRP. The absorbance at 450 nm in each measurement was proportional to the amount of antibodies bound. […] EC50 value (in ng/mL) for binding to human CTLA4 was determined by absorbance at 450 nm against antibody concentration with Prism variable slope of four-parameter dose-response curve, which was calculated using the nonlinear fit (variable slope, four parameters) model built into GraphPad Prism software (version 7.03). The buffers tested included His buffer (His), Tris buffer (Tris), Glutamine buffer (Glu) and no buffer.

[3] = target: T1, human CTLA4 expressed on the cell …; assay: FACS, cells expressing human CTLA4, assay pH 7.4, MFI; lot 6972 in Tris buffer, T2W; unit from the axis Log[ng/mL]
Method: as §1

[4] = target: T2, recombinant human CTLA4 extracellular …; assay: ELISA, wells coated with human CTLA4, assay pH 6.0; lot 6972 in Tris buffer, T0; unit from the axis Log[ng/mL]
Method: as §2

[5] = target: T2, recombinant human CTLA4 extracellular …; assay: ELISA, immobilised huCTLA-4, table head pH 7.0 (text: pH 7.4), Jul. 11, 2017
[6] = target: T2, recombinant human CTLA4 extracellular …; assay: ELISA, wells coated with human CTLA4, assay pH 6.0; lot 6972 in His buffer, T2W; unit from the axis Log[ng/mL]
Method: as §2

[7] = target: T2, recombinant human CTLA4 extracellular …; assay: ELISA, wells coated with human CTLA4, assay pH 6.0; lot 6978 in Tris buffer, T0; unit from the axis Log[ng/mL]
Method: as §2

[8] = target: T1, human CTLA4 expressed on the cell …; assay: FACS, cells expressing human CTLA4, assay pH 7.4, MFI; lot 6978 in Tris buffer, T0; unit from the axis Log[ng/mL]
Method: as §1

[9] = target: T1, human CTLA4 expressed on the cell …; assay: FACS, cells expressing human CTLA4, assay pH 6.0, MFI; lot 6978 in Glu buffer, T0; unit from the axis Log[ng/mL]
Method: as §1

[10] = target: T2, recombinant human CTLA4 extracellular …; assay: ELISA, wells coated with human CTLA4, assay pH 6.0; lot 6978 in His buffer, T0; unit from the axis Log[ng/mL]
Method: as §2

[11] = target: T2, recombinant human CTLA4 extracellular …; assay: ELISA, wells coated with human CTLA4, assay pH 7.4; lot 6978 in His buffer, T0; curve still rising at log 3 (OD450 below 0.2), no plateau; unit from the axis Log[ng/mL]
Method: as §2

[12] = target: T2, recombinant human CTLA4 extracellular …; assay: ELISA, wells coated with human CTLA4, assay pH 7.4; lot 6978 in Tris buffer, T0; curve still rising at log 3 (OD450 at most about 0.3), no plateau; unit from the axis Log[ng/mL]
Method: as §2

[13] = target: T1, human CTLA4 expressed on the cell …; assay: FACS, cells expressing human CTLA4, assay pH 7.4, MFI; lot 6978 in Glu buffer, T2W; unit from the axis Log[ng/mL]
Method: as §1

[14] = target: T1, human CTLA4 expressed on the cell …; assay: FACS, cells expressing human CTLA4, assay pH 6.0, MFI; lot 6978 in His buffer, T2W; unit from the axis Log[ng/mL]
Method: as §1

[15] = target: T2, recombinant human CTLA4 extracellular …; assay: ELISA, wells coated with human CTLA4, assay pH 7.4; lot 6978 in Glu buffer, T0; curve still rising at log 3 (OD450 at most about 0.3), no plateau; unit from the axis Log[ng/mL]
Method: as §2

Binder	EC50 [1] [mg/L]	EC50 [2] [mg/L]	EC50 [3] [mg/L]	EC50 [4] [mg/L]	EC50 [5] [mg/L]	EC50 [6] [mg/L]	EC50 [7] [mg/L]	EC50 [8] [mg/L]	EC50 [9] [mg/L]	EC50 [10] [mg/L]	EC50 [11] [mg/L]	EC50 [12] [mg/L]	EC50 [13] [mg/L]	EC50 [14] [mg/L]	EC50 [15] [mg/L]
B1	0.352	0.022	0.537	0.00591	0.0502	0.00704									
B2							0.0171	1.26	~0.15	0.038	0.491	1.14	1.41	0.145	1.19
